This note sets out measurements from publication PMC6274716.

Among the targets are FHA variant E1 (yeast); FHA variant H11 (yeast); FHA variant B3 (yeast).
What all share (assay): ELISA; competition: FHA clone binding to immobilized phosphorylated Akt1 peptide in the presence of free phosphorylated peptide; IC50
On the technique in general: In an ELISA, binding on a coated surface is turned into a signal by an enzyme label.

Test [1] addresses FHA variant E12 (Akt1-pTBD) (yeast).

Non-standard residues stand in square brackets, D forms with d. *: point of attachment. Biotin = O=C1N[C@H]2[C@H](CS[C@H]2CCCCC(=O)*)N1; pT = C[C@@H](OP(=O)(O)O)[C@H](N)C(=O)O

What is called IC50 is the point on the concentration scale where inhibition reaches its midpoint. In the case of Biotin-KDGATMK[pT]FCGTPEY-NH2 (not fully specified (residue 12)) [Akt1-pT308 peptide], the half-maximal inhibitory concentration (IC50) in the test with FHA variant E1 (yeast) was found to be 1.95 µM; in test [1], 0.045 µM; in the test with FHA variant H11 (yeast), 0.09 µM; with FHA variant B3 (yeast) it was 100 µM.
